Target: the molecule itself
Assay: negative-staining electron microscopy

B1: recombinant glutathione S-transferase (GST)-SAM protein (GST fusion of the mouse Bicc1 SAM domain) (domain or fragment, UniProt Q99MQ1 875-938, looked up)
chain: FKGSDLPELFSKLGLGKYTDVFQQQEIDLQTFLTLTDQDLKELGITTFGARRKMLLAISELSKN
  stoichiometry N: ~40 units
